Legend:
mouse FcγRIII [1] = target: T1, mouse FcγRIII (mouse, UniProt P08508 31-215); assay: SPR (Biacore), antibody held on immobilised human FcRn, FcγR injected, pH 7.4, 25 C
T1 sequence (looked up): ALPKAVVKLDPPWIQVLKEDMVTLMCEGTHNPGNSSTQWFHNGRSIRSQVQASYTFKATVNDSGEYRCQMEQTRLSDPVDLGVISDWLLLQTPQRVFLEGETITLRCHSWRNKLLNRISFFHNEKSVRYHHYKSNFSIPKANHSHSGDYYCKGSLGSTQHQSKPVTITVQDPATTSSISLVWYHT

human FcγRIa [2] = target: T2, human FcγRIa (human, UniProt P12314 16-292, limits assumed); assay: as above
T2 construct: also called hFcgRI; hFcγRIa
T2 sequence (P12314 16-292 limits assumed): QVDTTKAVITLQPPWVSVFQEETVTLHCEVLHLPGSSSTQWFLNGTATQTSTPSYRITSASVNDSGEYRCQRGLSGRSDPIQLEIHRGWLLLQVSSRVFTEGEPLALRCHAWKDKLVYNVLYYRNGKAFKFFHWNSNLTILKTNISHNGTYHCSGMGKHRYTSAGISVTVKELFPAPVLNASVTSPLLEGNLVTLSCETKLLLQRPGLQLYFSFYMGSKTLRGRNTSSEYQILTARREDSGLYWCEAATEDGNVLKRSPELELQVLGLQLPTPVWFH

human FcγRIIb = target: T3, human FcγRIIb (human, UniProt P31994 43-217, limits assumed); assay: as above
T3 construct: also called hFcgRIIb
T3 sequence: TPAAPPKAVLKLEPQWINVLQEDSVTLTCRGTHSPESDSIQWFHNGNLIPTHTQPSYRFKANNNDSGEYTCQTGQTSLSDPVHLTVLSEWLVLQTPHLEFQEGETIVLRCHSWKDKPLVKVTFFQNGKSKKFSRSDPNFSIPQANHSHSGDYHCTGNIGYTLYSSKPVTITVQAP

mouse FcγRIIb [3] = target: T4, mouse FcγRIIb (mouse, UniProt P08101 30-210, limits assumed); assay: as above
T4 sequence (looked up): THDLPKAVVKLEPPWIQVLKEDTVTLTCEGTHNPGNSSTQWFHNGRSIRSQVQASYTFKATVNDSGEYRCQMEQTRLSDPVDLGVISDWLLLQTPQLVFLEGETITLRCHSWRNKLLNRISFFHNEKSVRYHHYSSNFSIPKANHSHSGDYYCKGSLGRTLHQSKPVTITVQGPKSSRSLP

human FcRn = target: T5, human FcRn (human, UniProt P55899 24-290; P61769 21-119, limits assumed); assay: as above
T5 construct: also called hFcRn
T5 sequence (P55899 24-290 limits assumed, chain 1 of 2): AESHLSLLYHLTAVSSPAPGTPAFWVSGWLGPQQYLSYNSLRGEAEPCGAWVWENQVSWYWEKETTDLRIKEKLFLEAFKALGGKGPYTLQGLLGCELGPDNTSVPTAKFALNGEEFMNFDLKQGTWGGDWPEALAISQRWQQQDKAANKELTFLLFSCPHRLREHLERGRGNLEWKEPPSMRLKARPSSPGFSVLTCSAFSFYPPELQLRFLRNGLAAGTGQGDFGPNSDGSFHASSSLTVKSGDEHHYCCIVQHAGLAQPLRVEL
T5 sequence (P61769 21-119 limits assumed, chain 2 of 2): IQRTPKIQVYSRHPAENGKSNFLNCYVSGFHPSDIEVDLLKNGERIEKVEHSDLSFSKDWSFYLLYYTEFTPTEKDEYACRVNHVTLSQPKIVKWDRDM

mouse FcγRI = target: T6, mouse FcγRI (mouse, UniProt P26151 25-297); assay: as above
T6 sequence (looked up): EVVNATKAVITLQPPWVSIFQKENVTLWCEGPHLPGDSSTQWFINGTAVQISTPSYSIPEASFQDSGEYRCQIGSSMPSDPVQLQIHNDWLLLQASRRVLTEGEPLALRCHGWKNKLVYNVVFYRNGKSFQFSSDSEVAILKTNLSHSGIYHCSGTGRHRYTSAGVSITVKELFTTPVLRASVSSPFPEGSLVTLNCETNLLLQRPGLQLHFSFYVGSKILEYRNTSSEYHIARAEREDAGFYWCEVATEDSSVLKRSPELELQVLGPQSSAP

human FcγRIa [4] = target: T2, human FcγRIa; assay: Biacore, Protein L capture, human FcγR injected, pH 7.4, 25 C (Table 13 not given)
mouse FcγRIII [5] = target: T1, mouse FcγRIII; assay: Biacore, Protein L capture, mouse FcγR injected, pH 7.4, 25 C (Table 7 not given); weaker than F21
mouse FcγRIIb [6] = target: T4, mouse FcγRIIb; assay: as above
mouse FcγRIIb [7] = target: T4, mouse FcγRIIb; assay: Biacore, Protein L capture, mouse FcγR injected, pH 7.4, 25 C (Table 7 not given); weaker than F157

Measured: binding result

B1: Fv4-IgG1-F157 (antibody)
heavy: QVQLQESGPGLVKPSETLSLTCAVSGHSISHDHAWSWVRQPPGEGLEWIGFISYSGITNYNPSLQGRVTISRDNSKNTLYLQMNSLRAEDTAVYYCARSLARTTAMDYWGEGTLVTVSSASTKGPSVFPLAPSSKSTSGGTAALGCLVKDYFPEPVTVSWNSGALTSGVHTFPAVLQSSGLYSLSSVVTVPSSSLGTQTYICNVNHKPSNTKVDKKVEPKSCDKTHTCPPCPAPELLGGPSVFLFPPKPKDTLMISRTAEVTCVVVDVSHEDPEVKFNWYVDGVEVHNAKTKPREEQYNSTYRVVSVLTPLHQDWLNGKEYKCKVSNKALPAPIEKTISKAKGQPREPQVYTLPPSRDELTKNQVSLTCLVKGFYPSDIAVEWESNGQPENNYKTTPPVLDSDGSFFLYSKLTVDKSRWQQGNVFSCSVLHEALHYHYTQKSLSLSP
light: DIQMTQSPSSLSASVGDSVTITCQASTDISSHLNWYQQKPGKAPELLIYYGSHLLSGVPSRFSGSGSGTDFTFTISSLEAEDAATYYCGQGNRLPYTFGQGTKVEIERTVAAPSVFIFPPSDEQLKSGTASVVCLLNNFYPREAKVQWKVDNALQSGNSQESVTEQDSKDSTYSLSSTLTLSKADYEKHKVYACEVTHQGLSSPVTKSFNRGEC
notes: VH3-IgG1-F157 with VL3-CK; copies: 2 + 2
binds: mouse FcγRIII [1] | human FcγRIa [2] | human FcγRIIb | mouse FcγRIIb [3] | human FcRn | mouse FcγRI

B2: VH3/L(WT)-IgG1-F140 (antibody)
heavy: QVQLQESGPGLVKPSETLSLTCAVSGHSISHDHAWSWVRQPPGEGLEWIGFISYSGITNYNPSLQGRVTISRDNSKNTLYLQMNSLRAEDTAVYYCARSLARTTAMDYWGEGTLVTVSSASTKGPSVFPLAPSSKSTSGGTAALGCLVKDYFPEPVTVSWNSGALTSGVHTFPAVLQSSGLYSLSSVVTVPSSSLGTQTYICNVNHKPSNTKVDKKVEPKSCDKTHTCPPCPAPELLGGPKVFLFPPKPKDTLYISRTPEVTCVVVDVSHEDPEVKFNWYVDGVEVHNAKTKPREEQYNSTYRVVSVLTPLHQDWLNGKEYKCKVSNKALPAPIEKTISKAKGQPREPQVYTLPPSRDELTKNQVSLTCLVKGFYPSDIAVEWESNGQPENNYKTTPPVLDSDGSFFLYSKLTVDKSRWQQGNVFSCSVMHEALHYHYTQKSLSLSP
light: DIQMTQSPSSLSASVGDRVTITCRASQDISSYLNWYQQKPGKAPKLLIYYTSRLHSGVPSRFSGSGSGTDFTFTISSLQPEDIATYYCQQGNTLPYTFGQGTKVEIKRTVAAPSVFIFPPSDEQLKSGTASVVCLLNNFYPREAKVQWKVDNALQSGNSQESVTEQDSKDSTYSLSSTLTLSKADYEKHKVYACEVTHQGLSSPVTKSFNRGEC
notes: VH3-IgG1-F21 with S239K (EU); measured with L(WT)-CK; also called Fv4-IgG1-F140; copies: 2 + 2
binds: human FcγRIa [4] | mouse FcγRIII [5] | mouse FcγRIIb [6]

B3: VH3/L(WT)-IgG1-F424 (antibody)
heavy: QVQLQESGPGLVKPSETLSLTCAVSGHSISHDHAWSWVRQPPGEGLEWIGFISYSGITNYNPSLQGRVTISRDNSKNTLYLQMNSLRAEDTAVYYCARSLARTTAMDYWGEGTLVTVSSASTKGPSVFPLAPSSKSTSGGTAALGCLVKDYFPEPVTVSWNSGALTSGVHTFPAVLQSSGLYSLSSVVTVPSSSLGTQTYICNVNHKPSNTKVDKKVEPKSCDKTHTCPPCPAPELLGGPKVFLFPPKPKDTLMISRTAEVTCVVVDVSHEDPEVKFNWYVDGVEVHNAKTKPREEQYNSTYRVVSVLTPLHQDWLNGKEYKCKVSNKALPAPIEKTISKAKGQPREPQVYTLPPSRDELTKNQVSLTCLVKGFYPSDIAVEWESNGQPENNYKTTPPVLDSDGSFFLYSKLTVDKSRWQQGNVFSCSVLHEALHYHYTQKSLSLSP
light: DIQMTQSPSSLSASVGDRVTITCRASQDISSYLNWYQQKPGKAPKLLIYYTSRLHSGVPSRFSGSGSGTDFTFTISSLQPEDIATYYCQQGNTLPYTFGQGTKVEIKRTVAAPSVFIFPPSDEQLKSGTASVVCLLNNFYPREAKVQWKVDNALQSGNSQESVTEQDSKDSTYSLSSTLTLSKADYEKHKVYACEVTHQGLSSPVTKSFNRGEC
notes: VH3-IgG1-F157 with S239K (EU); measured with L(WT)-CK; also called Fv4-IgG1-F424; copies: 2 + 2
binds: mouse FcγRIIb [7]

Source: patent WO2012132067A1 (dated 2012)
